For experiment [1], the target named is T1, Mch3α, bacterially expressed recombinant active enzyme (human, UniProt P55210 24-303, limits assumed).
T1 construct: Expressed in E. coli as a GST fusion (Mch3α1 or Mch3α2); also called recombinant Mch3α
T1 sequence: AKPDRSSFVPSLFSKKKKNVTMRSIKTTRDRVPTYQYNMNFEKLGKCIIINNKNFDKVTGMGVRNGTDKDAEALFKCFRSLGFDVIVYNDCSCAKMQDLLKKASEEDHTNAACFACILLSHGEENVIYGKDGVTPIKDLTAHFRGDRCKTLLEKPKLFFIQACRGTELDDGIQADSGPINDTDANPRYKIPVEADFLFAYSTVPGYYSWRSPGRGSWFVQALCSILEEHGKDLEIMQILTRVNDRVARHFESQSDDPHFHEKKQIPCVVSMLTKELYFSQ
Description: inhibition of hydrolysis of 50 µM DEVD-AMC, continuous fluorometric assay, bacterial lysate, 30 min preincubation.

Experiment [2] has as its target T2, CPP32, bacterially expressed recombinant active enzyme (human, UniProt P42574 29-277, limits assumed).
T2 construct: Bacterially expressed (as a GST fusion, as described for Mch3) and used as bacterial lysate; also called recombinant CPP32
T2 sequence (looked up): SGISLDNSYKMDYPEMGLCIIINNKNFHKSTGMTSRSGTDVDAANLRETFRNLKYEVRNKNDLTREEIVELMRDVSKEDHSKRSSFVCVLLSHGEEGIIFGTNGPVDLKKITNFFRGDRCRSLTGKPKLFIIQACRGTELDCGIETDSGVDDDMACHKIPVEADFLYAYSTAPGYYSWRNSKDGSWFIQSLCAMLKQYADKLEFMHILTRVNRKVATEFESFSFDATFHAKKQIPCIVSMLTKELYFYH
Description: inhibition of hydrolysis of 10 µM DEVD-AMC, continuous fluorometric assay, bacterial lysate, 30 min preincubation.

Our source for the Ki values is US20030119169A1 (IDUN PHARMACEUTICALS, published 2003).

No end group written: not given here.

Take DEVD-aldehyde (also called DEVD-CHO) [tetrapeptide DEVD aldehyde]: the Ki came to 1.8 nM in experiment [1] and 0.59 nM in experiment [2].

The term Ki denotes a dissociation constant, usually derived from enzyme kinetics or from competition with a known ligand.
